Data as given in patent US20260151519A1 (AKTIS ONCOLOGY, published 2026).
Bridges are numbered along the chain shown (N, C = ends). Primed or numbered codes have the meaning given here. Where no end group is shown, it is not given here. The star is where a group is joined. Biotin = O=C1N[C@H]2[C@H](CS[C@H]2CCCCC(=O)*)N1; PEG4″ = 4(ethylene glycol)

Target: T1, Human Nectin-4 (human, UniProt Q96NY8 32-349, limits assumed)
T1 construct: Protein immobilised on the SPR chip; also called target protein
T1 sequence: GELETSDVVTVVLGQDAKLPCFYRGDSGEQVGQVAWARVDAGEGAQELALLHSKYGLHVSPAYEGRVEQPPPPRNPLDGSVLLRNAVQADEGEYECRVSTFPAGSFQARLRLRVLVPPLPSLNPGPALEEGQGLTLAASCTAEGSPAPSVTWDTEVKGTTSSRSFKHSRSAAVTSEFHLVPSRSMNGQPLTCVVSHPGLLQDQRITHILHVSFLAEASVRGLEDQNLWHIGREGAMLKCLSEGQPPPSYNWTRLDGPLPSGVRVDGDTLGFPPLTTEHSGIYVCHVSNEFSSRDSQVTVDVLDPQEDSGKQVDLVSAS
Experiment: Table 2B (DELFIA or SPR)

{Biotin-PEG4″}-CEYDEEFFTALKRLRGGDICEYIQASFQYLPGLCIEEILDNLGCS-OH (designed binder, disulfide 1-34, 20-44) [C178]
Kd: 1.4 nM

{Biotin-PEG4″}-CEYDEEFFTALARLRGGDICYYIQAYFQYLPGLCIEEILDNLGCS-OH (designed binder, disulfide 1-34, 20-44) [C165]
Kd: 4.1 nM

{Biotin-PEG4″}-CEYDGEFFTALARLRGGDICQYIQAKFQYLPGLCIEEILDNLGCS-OH (designed binder, disulfide 1-34, 20-44) [C158]
Kd: 1.1 nM

{Biotin-PEG4″}-CEYDEEFFTALKRLRGGDICYYIQASFQYLPGLCIEEILDNLGCS (designed binder, disulfide 1-34, 20-44) [C111]
Kd: 4.32 nM

{Biotin-PEG4″}-CEYDEEFFTALARLRGGDICYYILAKFQYLPGECIEEILDNLGCS (designed binder, disulfide 1-34, 20-44) [C145]
Kd: 1.3 nM

{Biotin-PEG4″}-CEYDEEFFTALKRLRGGDICYYIQKAFQYLPGLCIEEILDNLGCS (designed binder, disulfide 1-34, 20-44) [C123]
Kd: 1.43 nM

{Biotin-PEG4″}-CDYDEEFFTALARLRGGDICEYIQAKFQYLPGLCIEEILDNLGCS (designed binder, disulfide 1-34, 20-44) [C141]
Kd: 0.64 nM

{Biotin-PEG4″}-CEYDEEFFTALKRLRGGDICYYIQAKFQYLPKLCIEEILDNLGCS (designed binder, disulfide 1-34, 20-44) [C119]
Kd: 0.95 nM

{Biotin-PEG4″}-CEYDEEFFTALARLRGADICYYIQAKFQYLPGDCIEEILDNLGCS (designed binder, disulfide 1-34, 20-44) [C140]
Kd: 1.1 nM

{Biotin-PEG4″}-CEYDGEFFTALARLRGADICEYIQAKFQYYPGLCIEEILDNLGCS-OH (designed binder, disulfide 1-34, 20-44) [C144]
Kd: 3.7 nM

{Biotin-PEG4″}-CEYDEEFFTALKRLRGDDICEYIQASFQYLPGLCIEEILDNLGCS-OH (designed binder, disulfide 1-34, 20-44) [C181]
Kd: 3 nM

{Biotin-PEG4″}-CEYDEEFFTALARLRGGDICYYIQAKFAYLPALCIEEILDNLGCS (designed binder, disulfide 1-34, 20-44) [C154]
Kd: 0.94 nM

Ac-CEYDEEFFTALARLRGGDICYYIQAKFQYLPGLCIEEILDNLGCS (designed binder, disulfide 1-34, 20-44) [C124]
Kd: 1.1 nM

{Biotin-PEG4″}-CEYDEEFFTALARLRGGDICDYIQAKFQYLPGLCIAEILDNLGCS-OH (designed binder, disulfide 1-34, 20-44) [C157]
Kd: 1.1 nM

{Biotin-PEG4″}-CEYDEEFFTALKRLRGDDICSYIQASFQYLPGLCIEEILDNLGCS-OH (designed binder, disulfide 1-34, 20-44) [C182]
Kd: 3 nM

{Biotin-PEG4″}-CEYDEQFFTALKALRGGDICYYIQASFNYLPDLCIEEILDNLGCS (designed binder, disulfide 1-34, 20-44) [C115]
Kd: 6.46 nM

{Biotin-PEG4″}-CEYDEEFFTALARLRGADICDYIQAKFQYLPGLCIEEILDNLGCS (designed binder, disulfide 1-34, 20-44) [C147]
Kd: 0.69 nM

{Biotin-PEG4″}-CEYDEEFFTALARLRGGDICEYIQAKFQYLPGLCIQEILDNLGCS (designed binder, disulfide 1-34, 20-44) [C148]
Kd: 0.82 nM

{Biotin-PEG4″}-CEYDEQFFTALARLRGGDICYYILAKFQYLPQLCIEEILDNLGCS (designed binder, disulfide 1-34, 20-44) [C152]
Kd: 0.85 nM

{Biotin-PEG4″}-CEYDEEFFTALARLRGGDICSYIQAKFQYLPKLCIEEILDNLGCS (designed binder, disulfide 1-34, 20-44) [C168]
Kd: 0.9 nM

{Biotin-PEG4″}-CEYDEEFFTALKRLRGGDICSYIQASFQYLPGLCIEEILDNLGCS-OH (designed binder, disulfide 1-34, 20-44) [C179]
Kd: 1.8 nM

{Biotin-PEG4″}-CEYDEEFFTALARLRGGDICDYIQAKFQYLPKLCIEEILDNLGCS (designed binder, disulfide 1-34, 20-44) [C169]
Kd: 0.74 nM

{Biotin-PEG4″}-CEYDEAFFTALARLRGGDICQYIQAKFQYLPGLCIEEILDNLGCS-OH (designed binder, disulfide 1-34, 20-44) [C151]
Kd: 0.68 nM

{Biotin-PEG4″}-CEYDEEFFTALARLRGSDICLYIQAKFQYLPGLCIEEILDNLGCS-OH (designed binder, disulfide 1-34, 20-44) [C156]
Kd: 1.1 nM

{Biotin-PEG4″}-CEYDEEFFTALAQLRGGDICYYIQAKFQYLPGLCIEEILDNLGCS-OH (designed binder, disulfide 1-34, 20-44) [C162]
Kd: 8.8 nM

Ac-CEYDEEFFTALKRLRGGDICYYIQAKFQYLPKLCIEEILDNLGCS (designed binder, disulfide 1-34, 20-44) [C116]
Kd: 0.78 nM

{Biotin-PEG4″}-CEYDEEFFTALARLRGGDICYYIQAYFQYLPGLCIEEILDNLGCS-OH (designed binder, disulfide 1-34, 20-44) [C174]
Kd: 4.1 nM

Ac-CEYDEEFFTALKRLRGGDICYYIQASFQYLPGLCIEEILDNLGCS (designed binder, disulfide 1-34, 20-44) [C108]
Kd: 5.78 nM

{Biotin-PEG4″}-CEYDEEFFTALARLRGGDICYYIQAKFQYLPKLCIEEILDNLGCS-OH (designed binder, disulfide 1-34, 20-44) [C166]
Kd: 0.75 nM

{Biotin-PEG4″}-CEYDEQFFTALARLRGGDICEYIQAKFQYLPGLCIEEILDNLGCS (designed binder, disulfide 1-34, 20-44) [C146]
Kd: 0.54 nM

{Biotin-PEG4″}-CEYDEEFFTALARLRGGDICYYIQAKFQYLPGECIEEILQNLGCS-OH (designed binder, disulfide 1-34, 20-44) [C142]
Kd: 0.81 nM

{Biotin-PEG4″}-CEYDEEFFTALARLRGGDICEYIQAKFQYLEGLCIEEILDNLGCS-OH (designed binder, disulfide 1-34, 20-44) [C150]
Kd: 1 nM

{Biotin-PEG4″}-CEYDEEFFTALARLRGGDICEYIQAKFQYLPKLCIEEILDNLGCS-OH (designed binder, disulfide 1-34, 20-44) [C167]
Kd: 1.2 nM

{Biotin-PEG4″}-CEYDEEFFTALKRLRGGDICYYIQASFQYLPGECIEEILDNLGCS-OH (designed binder, disulfide 1-34, 20-44) [C177]
Kd: 2 nM

{Biotin-PEG4″}-CEYDEEFFTALASLRGGDICYYIQAKFQYLPGLCIEEILDNLGCS-OH (designed binder, disulfide 1-34, 20-44) [C161]
Kd: 7.5 nM

{Biotin-PEG4″}-CEYDEEFFTALARLRGGDICQYIQAKFQYLPALCIEEILDNLGCS (designed binder, disulfide 1-34, 20-44) [C153]
Kd: 0.56 nM

{Biotin-PEG4″}-CEYDEEFFTALSRLRGGDICYYIQQAFQYLPGLCIEEILDNLGCS (designed binder, disulfide 1-34, 20-44) [C135]
Kd: 5.42 nM

{Biotin-PEG4″}-CEYDEEFFTALARLRGGDICYYIQAKFQYLPGLCIEEILDNLGCS (designed binder, disulfide 1-34, 20-44) [C127]
Kd: 1.27 nM

{Biotin-PEG4″}-CEYDEEFFTALARLRGGDICQYIQAKFAYVPGLCIEEILDNLGCS-OH (designed binder, disulfide 1-34, 20-44) [C155]
Kd: 1.1 nM

Ac-CEYDEEFFTALKRLRGGDICYYIQKAFQYLPGLCIEEILDNLGCS (designed binder, disulfide 1-34, 20-44) [C120]
Kd: 2.11 nM

{Biotin-PEG4″}-CEYDEEFFTALKRLRGDDICYYIQASFQYLPGLCIEEILDNLGCS-OH (designed binder, disulfide 1-34, 20-44) [C180]
Kd: 2.7 nM
